This note sets out measurements from article PMC7264293, “Multi-site-mediated entwining of the linear WIR-motif around WIPI β-propellers for autophagy” (Nature Communications, 2020).

Holding throughout (assay): ITC; WIPI3 proteins in the sample cell, GB1-tagged ATG2A fragments in the syringe; 25 °C; 50 mM Tris-HCl pH 8.0, 100 mM NaCl, 1 mM EDTA, 1 mM DTT; model of one binding site
Holding throughout (settings): both partners purified
(Isothermal titration calorimetry measures the heat released or taken up as one component is titrated into another.)

In assay [1] the target is Hsv2 (yeast, UniProt P50079 1-448).
Chain of Hsv2 (P50079 whole entry): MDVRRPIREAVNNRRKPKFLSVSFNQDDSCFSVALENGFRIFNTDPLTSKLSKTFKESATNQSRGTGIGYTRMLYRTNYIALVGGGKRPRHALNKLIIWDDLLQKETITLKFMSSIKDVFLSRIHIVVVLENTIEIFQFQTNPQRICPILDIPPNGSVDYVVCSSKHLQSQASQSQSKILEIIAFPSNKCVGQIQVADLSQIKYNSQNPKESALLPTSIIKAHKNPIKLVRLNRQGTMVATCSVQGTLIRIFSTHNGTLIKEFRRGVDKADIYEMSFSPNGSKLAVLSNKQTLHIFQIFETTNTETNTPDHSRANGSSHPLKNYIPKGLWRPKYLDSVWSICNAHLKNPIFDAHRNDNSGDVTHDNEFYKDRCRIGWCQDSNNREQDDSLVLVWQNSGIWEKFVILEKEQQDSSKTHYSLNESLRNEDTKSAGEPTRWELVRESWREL
Assay [2] concerns the target T1, WIPI3 (full-length, wild-type) (human, UniProt Q5MNZ6 1-344).
T1 construct: human WIPI3, full length; also called wild-type WIPI3; full-length WIPI3; source: E. coli BL21(DE3), purified (Ni2+-Sepharose, size-exclusion chromatography)

The target in assay [3] is T2, WIPI3-Δloop (human, UniProt Q5MNZ6 1-344, Blade 2 B-C loop (75-80) deleted | Blade 6 C-D loop (264-281) deleted).
T2 construct: human WIPI3 with deletions of the Blade 2 B-C loop (75-80) and the Blade 6 C-D loop (264-281); also called loop-deletion mutant of WIPI3; source: E. coli BL21(DE3), purified (Ni2+-Sepharose, size-exclusion chromatography)
T2 sequence (Q5MNZ6 other isoform, or with tags, fused parts or gaps with the stated changes): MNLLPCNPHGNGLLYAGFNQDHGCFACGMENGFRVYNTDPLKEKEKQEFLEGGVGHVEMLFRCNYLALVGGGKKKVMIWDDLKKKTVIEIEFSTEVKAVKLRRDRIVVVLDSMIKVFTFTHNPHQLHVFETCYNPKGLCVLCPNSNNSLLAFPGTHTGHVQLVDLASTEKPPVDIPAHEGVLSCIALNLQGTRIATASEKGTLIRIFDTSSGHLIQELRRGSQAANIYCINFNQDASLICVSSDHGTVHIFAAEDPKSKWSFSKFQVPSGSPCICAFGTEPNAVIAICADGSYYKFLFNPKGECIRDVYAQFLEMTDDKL

T1 sequence (Q5MNZ6 whole entry): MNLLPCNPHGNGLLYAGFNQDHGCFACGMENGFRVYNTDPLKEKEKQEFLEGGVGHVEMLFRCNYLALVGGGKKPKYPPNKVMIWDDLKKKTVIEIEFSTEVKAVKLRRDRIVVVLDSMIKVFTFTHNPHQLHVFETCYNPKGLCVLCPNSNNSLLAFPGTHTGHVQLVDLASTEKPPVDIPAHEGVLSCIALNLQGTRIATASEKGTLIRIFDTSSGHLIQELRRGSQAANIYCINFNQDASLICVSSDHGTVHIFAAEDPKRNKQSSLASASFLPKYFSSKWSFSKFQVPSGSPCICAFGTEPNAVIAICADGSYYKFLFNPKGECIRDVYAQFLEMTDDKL

B1: GB1-tagged ATG2A short fragment (1374-1404), the WIR-peptide (peptide, UniProt Q2TAZ0 1374-1404, looked up)
chain: PRDGEPVVTQLHPGPIVVRDGYFSRPIGSTD
notes: human ATG2A residues 1374-1404; In the crystal (PDB 6KLR) the same stretch stood fused to the N-terminus of WIPI3-Δloop without the GB1 tag; source: E. coli BL21(DE3), purified (Ni2+-Sepharose, size-exclusion chromatography), tag not cleaved
Consider B1, for which the Kd – broadly, the constant that tells how readily two partners part at equilibrium – came to 21.5 ± 2 µM in assay [1], 8.7 ± 0.1 µM in assay [2] and 6.4 ± 0.7 µM in assay [3]. For the same molecule, the stoichiometry N (as a rule, a count of units in the complex or per binding partner) in assay [3] was 1.

B2: GB1-tagged WIR-peptide V1380A (peptide, UniProt Q2TAZ0 1374-1404, looked up)
chain: PRDGEPAVTQLHPGPIVVRDGYFSRPIGSTD
notes: human ATG2A residues 1374-1404 with V1380A; source: E. coli BL21(DE3), purified (Ni2+-Sepharose, size-exclusion chromatography), tag not cleaved
As for B2, in assay [3], the binding result is reported as “binds”.

B3: GB1-tagged WIR-peptide T1382A (peptide, UniProt Q2TAZ0 1374-1404, looked up)
chain: PRDGEPVVAQLHPGPIVVRDGYFSRPIGSTD
notes: human ATG2A residues 1374-1404 with T1382A; source: E. coli BL21(DE3), purified (Ni2+-Sepharose, size-exclusion chromatography), tag not cleaved
Take B3: in assay [3], the binding result is listed as “binds”.

B4: GB1-tagged WIR-peptide V1380Q (peptide, UniProt Q2TAZ0 1374-1404, looked up)
chain: PRDGEPQVTQLHPGPIVVRDGYFSRPIGSTD
notes: human ATG2A residues 1374-1404 with V1380Q; source: E. coli BL21(DE3), purified (Ni2+-Sepharose, size-exclusion chromatography), tag not cleaved
B4: the binding result in assay [3] is listed as “binds”.

B5: GB1-tagged WIR-peptide T1382Q (peptide, UniProt Q2TAZ0 1374-1404, looked up)
chain: PRDGEPVVQQLHPGPIVVRDGYFSRPIGSTD
notes: human ATG2A residues 1374-1404 with T1382Q; source: E. coli BL21(DE3), purified (Ni2+-Sepharose, size-exclusion chromatography), tag not cleaved
B5: in assay [3], the binding result was “binds”.

B6: GB1-tagged ATG2A long fragment (1358-1404) (domain or fragment, human, UniProt Q2TAZ0 1358-1404, looked up)
chain: DSDEFCILDAPGLGIPPRDGEPVVTQLHPGPIVVRDGYFSRPIGSTD
notes: human ATG2A residues 1358-1404; source: E. coli BL21(DE3), purified (Ni2+-Sepharose, size-exclusion chromatography), tag not cleaved
On to B6, for which the Kd in assay [2] worked out at 8.6 ± 0.1 µM; in assay [3], 6.3 ± 0.2 µM.
